Experimental data taken from the DeepSol protein solubility set.

Assay: soluble on expression in E. coli; label from the status in PepcDB or PDB records
In the case of “MESLKSNLFLTREAYLEAFETIMTPLKTAILTSEKPGVNFGSSGAVYDQQHAEMEALIRPLWGIGPYWVTCKDDVLRDAYVEKLIAGTDPSSPDYWGVIVDYDQYIVEAAALSLTLLLHKTYFWSCFSEKQQENIMVWLNKALGCKIPKNNWTFFKVLIRLALEGCGQVINQAELEEELALIECMYLGDGWYMDGKTTQRDYYISFAFHYYSLIYVKFMRERDPIRAKRFTERAVMFAQDYLYYFDEEGEALPYGRSQTYRFAQGAFFAALIFAEVEALPWGQIKTLLAKHLHCWMQQAIFTYDGRLSIGYHYENLVMAEGYNAPGSPYWAFKTFLLLAVDQDHPFWRAEPLAIKREEKRLIEKGNMLLIHPKMKTHVLGYPAGLWLENQAHAAAKYSKFVYSSRFGFSVPKAGARYEEGAFDNVLAVSRDGEYFRVKGKVHDFYLTEEQVYYKWLPFQEVEIETTIYPFGEWHVRVHEIVTSVPLKVREGGFSLPLLGKFSEKELGKEWARVDSGELCSQIVAIEGYDHAGILQPEPNTSLFFPRTSLPYLQKELPIGTHRLICLVGGVTREE”, the “soluble on expression in E. coli” value is reported as “soluble”.
In the case of “LIGDKNTTFVEKLNSLAADHQLPQIGFSTSSEPEWQFVKDLTEVDPEHVVKSYNRQAKYHLNKNKQFCIKLRKIGRDELPAFKRITQQTADRLHYHDKSLDFYETLFDTYGKKAKFIFAEINFKEYSESIEKDLNDIQKKLTEIAGADYHNISDLSDFSASAKRHLSEGIKTETALQKRLQEAKKMHQEAKHDIVLVSVALFVIENQEVVYLYSGSDEKYEHLFAPYEIQDTMITEAVKERIPLYNFYGVSGKFDGSDGVLGFKTHFNGYTREMVGSFDFPVQKTKYYFYRLFKKILHRQ”, the “soluble on expression in E. coli” value is reported as “not soluble”.
In the case of “MSLKQSHIRNFAIIAHIDHGKSTLADQIMSLTQTVSAREQHAQLLDDMTVEQAHGVTVKARTVRNYYQADDGQEYEYNLIDTPGHVDFNYEVAKSLAATEGAILLVDATQGVQAQTIANYRIAKQRQLTLIPVLNKVDLPSADIDAALAQLNDLDSAFTPEQVLQISAKTGQGVPAVLEAIKQRLPAPQGDLHQPLKALVFDSLYDPYQGVIAYVRLIDGQLKSQQALCLMQGQQDFNGKAIGVFAPQMHPQESLSAGDVGYVVTGIKDPRKVRVGDTLTSVATPTQRPLAGYQPAKSMVFAGLYPKNNDYPALKEAVQKLNLNDPSFTYVEERSEALGVGFRCGFLGTFHLQIIRERLHDEYGVDVLTTAPNVTYHVTLTNGQQVIVNNPVQFPAFSLIKEVTEPFMKAEITMPADNLNAVLKLAEQHKGTLIDLANSGDLIVASLKIPLSEIAYHFFSELKSVSHGFASLSTAFMANEVSDLVKVEVDINEGHHHHHH”, the “soluble on expression in E. coli” value is reported as “soluble”.
For “MSLENLKNIQPREDFNWEEFEAGGVHAAVSRQEQEAAYDKTLNTIKEKEVVMGRVTAINKREVVINVGYKSEGVVPATEFRYNPELKVGDEVEVYIENQEDKKGQLVLSHRKARAARSWERVNEALEKDEIVKGYVKCRTKGGMIVDVFGIEAFLPGSQIDVRPIRDYDAFVEKTMEFKIVKINQEYKNVVVSHKVLIEAELEQQKKEIIGKLEKGQVLEGIVKNITSYGVFIDLGGVDGLIHITDLSWGRVAHPEEIVQLDQKINVVILDFDEDRKRIALGLKQLMPHPWDALDSELKVGDKVKGKVVVMADYGAFVEIAQGVEGLIHVSEMSWTQHLRSAQDFLHVGDEVEAVILTLDREERKMSLGLKQLKPDPWADIETRFPVGSRHHARVRNFTNFGVFVEIEEGVDGLIHISDLSWTKKIKHPSEFTEVGADIEVQVIEIDKENRRLSLGHKQLEENPWDVFETVFTVGSIHEGTVIEVMDKGAVVSLPYGVEGFATPKHMVKEDGSQAVLEEKLPFKVIEFNKDAKRIIVSHSRVFEDEQKMAQREANAERKAEAKAAQKEAAAEAANPAQAVEKATLGDLGELAALKEKLSENEGHHHHHH”, the “soluble on expression in E. coli” value was “soluble”.
In the case of “MSLKIRSLHTDALKKLAVKCEDLFMAGQKDQLRFGVDSWSDFRLTSDKPCCEAGDAVYYTASYAKDPLNNYAVKICKSKAKESQQYYHSLAVRQSLAVHFNIQQDCGHFLAEVPNRLLPWEDPDDPEKDEDDMEETEEDAKGETDGKNPKPCSEAASSQKENQGVMSKKQRSHVVVITREVPCLTVADFVRDSLAQHGKSPDLYERQVCLLLLQLCSGLEHLKPYHVTHCDLRLENLLLVHYQPGGTAQGFGPAEPSPTSSYPTRLIVSNFSQAKQKSHLVDPEILRDQSRLAPEIITATQYKKCDEFQTGILIYEMLHLPNPFDENPELKEREYTRADLPRIPFRSPYSRGLQQLASCLLNPNPSERILISDAKGILQCLLWGPREDLFQTFTACPSLVQRNTLLQNWLDIKRTLLMIKFAEKSLDREGGISLEDWLCAQYLAFAEGHHHHHH”, the “soluble on expression in E. coli” value is reported as “not soluble”.
With “MTQCFKCKQAIGTVVSRDGPTKLYCPDCFLAYCAGAVRENAFQQCRVPSDTPLAVAVSGGPNSMMLLRELGQLRYKTRDQIRRQHLTPQRQAPAQGGKSRSTPTSSPPARSTPLASSLILLPFHLCEDELVLPLPPPLSSSTSSPSSLHAISGRHEAVNRVRSAMEEQFATLRKYVQQQPPRWVYHGEVPCGHKRTKKQQNNPTAAERTGAAHAGGANIATPELSHRGGGSTSAPSPQPRPQRQAGESGETAAATARLFDDSEIRLFRYSDLLSGTYLSELRYALHVSRLSLSDREALYARVRQQTLCRAAQRVCQEHRQRNAAAAAATAVVVGGVAHEEGIREDAAQCSEEQAPFDEHVSLEGTNSKTRSHLLLGSNAVRCATAALEALVTGAGGEGVVHGAGFRGFTHEVVCLRPLRAMLPKETIMYTRLCGIAGSYTPALCTGTATRSVHRTLEQFVLTMMTSYRTMIFNVLNTVQRLEVHPAAMQELLRGIDDASACHTHVHGEGLAEAGSTQSAGKTTRKALPARTAQLNRTDMCLAAPLHVRRDLGGVNVNEADIDSVIAMCCVCGCPASITSCYRGQNANTAVRQLEMLALNTTSAMTPRTSGASPSTVADAASASEASPTTTGCFLCYACQGLADAWPPSVFGRDSTTENDEQPGNDSTTAAGAAARHGAIASTAALFRLCALFY” the “soluble on expression in E. coli” value was “not soluble”.
In the case of “MGSDKIHHHHHHMSGKLTVITGPMYSGKTTELLSFVEIYKLGKKKVAVFKPKIDSRYHSTMIVSHSGNGVEAHVIERPEEMRKYIEEDTRGVFIDEVQFFNPSLFEVVKDLLDRGIDVFCAGLDLTHKQNPFETTALLLSLADTVIKKKAVCHRCGEYNATLTLKVAGGEEEIDVGGQEKYIAVCRDCYNTLKKRV”, the “soluble on expression in E. coli” value is reported as “not soluble”.
In the case of “MPKNTPIIRSLLDTDLYKFTMLQVVLHQFPAAHGEYEFRCRNHPDTPLTQLKQQLETQLDLLCELRFSQDELDYLRGLRFIKSDYVDYLELFHLQRRFISVSEEGEQLAIRIKGPMVQAMFFEIFVLAIVNELYFRPLDSKAVREEGRRRLEAKLAELERFQREEAPGQRFPLLIADFGTRRRFSRDWQAHVVERLNHALPQVFRGTSNVYLARKLGITPIGTMAHEFFQAFQALGVRLRDFQKAALESWVQEYRGDLGIALTDVVGMDAFLADFDLYFAKLFDGLRHDSGDPYIWGEKAIAHYRKLRIDPATKMLTFSDGLSVDSALQLQRHFSPHIQVSFGIGTHFTNDMGLEPLQIVLKLVSCNGQPVAKLSDSPGKTMCSDETFLAYLRQVFKVPALALEHHHHHH”, the “soluble on expression in E. coli” value is reported as “soluble”.
For “GVTGADGTTTFTLKQDQTTGLKTELTAALDSSSSTKSTLPVVFTVLTSPDSPKAKFWGHMAETATGDDGLIYRRPLLRDENSATTSIGTLVEEGEAWSTFPSGQANDTSINGCGAEYVPTDNELRAIYAHQGSSALHDAIGWPVSRFYISNTVADTFTQTFTYDVVSLKTGDETQMPSSGGALLSCR”, the “soluble on expression in E. coli” value was “not soluble”.
In the case of “MGHHHHHHSHMPSLNLFPSVSDSGFWTGGTALRNPPSRPPYLSIAMTTLVSLATDLKYGSTLLGRIKTVLDASVAQLTVADVTTEDIVNFLNSLNGIDHELFSFIRTYPVFFVLHLCTLDRTQTYTSGQVIKTIKHLITTFREVLCEDMGADNDSIISNSNILKDCSWYLTKLETEQMSTSIPHLPKSCITFPCMEQVHHLVHNATLATLPNSWTSPLPSLNSVYVQWFVLSYKHKVFPDEVPSSNIQDLADKMTNIYKHLFVPHTSQLTGASIILARSLDILSQFTPLEKIPSNSPAVAFGDDELSNIPSNCHLMFGHLIESIYMGMTYACTLGAVEQFIREAFDVVLGVASEIKRTASLSDLPTVTKLVNIKRILIEHGLSETRCEEYAQALPKWQHREGIYPFEETLDHFHQKLSTLIKFCLEFYNTLMLVSPTSISHSYLKENNYLLQLDRKSAASQGQGPDDINLLEKVFTFVYPQVPGQDLQRIHDAIDSDIMRTLFFSWVNRNWGIVLITQNPLMEPSCEHQVSEERVAAYCKRMPVGDLSYEPAMVSHKMFYKYFIRHIVGPTIQGIFSRKTSRNRALFQIRWLLSFAITDTPQLQEIRRPLGMFYFELLDIINGTNKPSAMKNLLDHALDLKKKINKINQTFSIPQDLILYLFVLDTGASYINSVDYITAIIPKVEHLLLRGRNILRLGSILCHTKYNYHPLTHQFTILSSSGQILEVHLETLKSLISQVEKDHSQLLMEITDLEGELRGEYSTVLSLLQDLEAYKQHELGIEFDTEPWNQLKQSFSGILSRISSGLSLLSKGCSSCLRKRFHDLFSQEIITPTILKAASAGNVEIIKNLKEIPVNLMAPPTDTSMTQAGGNPTDEDLTMLYSTYPQIFSQNAARGEKHPPQLKKYSSTYDRIPLDVNWQIFTQQTYTAEHAECPYTIVKIHDIIKLLS”, the “soluble on expression in E. coli” value is reported as “not soluble”.
For “SRPVGPLARRGCCSAPGTPEVPLTRERYPVQRLPFSTVSKQDLAAFERIVPGGVVTDPEALQAPNVDWLRTLRGCSKVLLRPRTSEEVSHILRHCHERNLAVNPQGGNTGMVGGSVPVFDEIILSTARMNRVLSFHSVSGILVCQAGCVLEELSRYVEERDFIMPLDLGAKGSCHIGGNVATNAGGLRFLRYGSLHGTVLGLEVVLADGTVLDCLTSLRKDNTGYDLKQLFIGSEGTLGIITTVSILCPPKPRAVNVAFLGCPGFAEVLQTFSTCKGMLGEILSAFEFMDAVCMQLVGRHLHLASPVQESPFYVLIETSGSNAGHDAEKLGHFLEHALGSGLVTDGTMATDQRKVKMLWALRERITEALSRDGYVYKYDLSLPVERLYDIVTDLRARLGPHAKHVVGYGHLGDGNLHLNVTAEAFSPSLLAALEPHVYEWTAGQQGSVSAEHGVGFRKRDVLGYSKPPGALQLMQQLKALLDPKGILNPYKTLPSQA”, the “soluble on expression in E. coli” value was “soluble”.
With “MKRGKRLILPLLGTLILTSLFSCGVDRWPEYYPETGRDIWIDSVMRQEYLWYRDMPSPAAPDYFQKPEAFLKKAVASMDNGFSKIDSLLDEPIPSYGFDYTLYKVLDNDTAYNALISYVVPGSPAEEAGLQRGHWIMMMNGDYITKKVESELLQGSTRQLQIGVYKEVVGEDGEVTGGVVPIGETTMPASRSLVDKPVHRFEIIPWNGKKVGYLMYNEFKAGPTTDSQAYNDDLRRAFRDFQTGGVNEFVLDLRYNTGGSLDCAQLLCTMLAPADKMNQLLALLRYSDKRVEANQDLTFNPELIQSGANLNLSTVYVLTTNATRGAAEMVINCLNPYMKVVLIGTKTAGEYVATKPFVHPTDRFILNLVVCNVYNAEEKSDYATGFKPTYEYNEDSYLSTYLPFGNTNETLLNAALKIMSGITDK” the “soluble on expression in E. coli” value was “not soluble”.
For “MGSDKIHHHHHHMAVTDKERKLAATLSDPVLWGQAYLYNRDGSGRDYWPHQVEDLRCPAKNIIHLDGRDVGKSIVLSTDALHYAFTTRGGQGLVAAPHQGHLDTIIEEIEFQLDTNPDLMNSIALTKYGKPKIHRKPYFRLEFTNGSVLYFRPAGAYGDAFRSLHVGRVWVDEGAWLTERAWKALRQCLKAGGTLRIYSTPNGLRDTTYYRLTSSEQFHVFRWPSWLNPLWTEDREAELLEFYGGRDSSGWQHEVAGEHGKPSYGAFNVEQFNLCRQDLLEYQKIVITDSELRDCDTEEAAHDRLEMLLNLTPRSGQFWVGGDLGYTNDPTEIVVFQEMEVGERTLLKMILRVHLEHVSYPHIAQIIALLERYYTPAGIGVDNGGNGLAVVQELLTLDKYKGLELEGRLKGYDFGGMTRLAVRDGKEIKKRTKELMTSLINGALQRKQLIFPSDDLEVEDQFTTHTYTLRDGKIIYSKGNDHIIDAVRCAMLIREEGNLDPVGEEVVSLKPVLTNPVFI”, the “soluble on expression in E. coli” value was “not soluble”.
